From the supplement of paper PMC9112550, “Optimization of the antimicrobial peptide Bac7 by deep mutational scanning” (BMC Biology, 2022)

system: Escherichia coli TOP10; test: shrunken log2 fold change of peptide-encoding DNA abundance (4.5 h post-induction vs induction); higher = less antimicrobial activity (less host growth inhibition); conditions: time post-induction: 4.5 h; library: site-saturation at positions 5, 18, 19, 20
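Further: peptides expressed intracellularly from a pBAD plasmid library in pooled LB shake-flask culture, induced with 0.3% L-arabinose, DNA abundance read by NGS, three biological replicates, DESeq2 with apeglm shrinkage.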

| Sequence | shrunken log2 fold change |
| --- | --- |
| RRIRERPPRLPRPRPRPCMTPRP | -0.00173 |
| RRIRVRPPRLPRPRPRPKAQPRP | 0.107 |
| RRIRTRPPRLPRPRPRPPNTPRP | 0.443 |
| RRIRKRPPRLPRPRPRPGMSPRP | 0.361 |
| RRIRARPPRLPRPRPRPRQSPRP | 0.233 |
| RRIRSRPPRLPRPRPRPRHWPRP | 0.618 |
| RRIRWRPPRLPRPRPRPFRCPRP | -0.257 |
| RRIRCRPPRLPRPRPRPLVQPRP | 0.245 |
| RRIRARPPRLPRPRPRPCWKPRP | -0.16 |
| RRIRWRPPRLPRPRPRPNEDPRP | 0.211 |
| RRIRGRPPRLPRPRPRPAKKPRP | 0.00559 |
| RRIRCRPPRLPRPRPRPVPYPRP | -0.533 |
| RRIRARPPRLPRPRPRPQDPPRP | 0.557 |
| RRIRVRPPRLPRPRPRPPTVPRP | 0.167 |
| RRIRPRPPRLPRPRPRPGIGPRP | 0.208 |
| RRIRKRPPRLPRPRPRPCQMPRP | -0.0362 |
| RRIRNRPPRLPRPRPRPVHKPRP | -0.182 |
| RRIRWRPPRLPRPRPRPTTIPRP | 0.127 |
| RRIRRRPPRLPRPRPRPHEEPRP | 0.0957 |
| RRIRIRPPRLPRPRPRPYPNPRP | -0.072 |
| RRIRLRPPRLPRPRPRPHSSPRP | 0.0594 |
| RRIRFRPPRLPRPRPRPQDAPRP | -0.0849 |
| RRIRYRPPRLPRPRPRPCRGPRP | -0.157 |
| RRIRGRPPRLPRPRPRPFYCPRP | -0.0638 |
| RRIRIRPPRLPRPRPRPAGNPRP | -0.0516 |

| Sequence | shrunken log2 fold change |
| --- | --- |
| RRIRQRPPRLPRPRPRPVWMPRP | -0.00887 |
| RRIRVRPPRLPRPRPRPEDNPRP | -0.184 |
| RRIRYRPPRLPRPRPRPTVDPRP | 0.0546 |
| RRIRLRPPRLPRPRPRPSTAPRP | -1.05 |
| RRIRMRPPRLPRPRPRPSCWPRP | 0.594 |
| RRIRCRPPRLPRPRPRPMHGPRP | 0.0358 |
| RRIRCRPPRLPRPRPRPDDDPRP | 0.0464 |
| RRIRARPPRLPRPRPRPRPHPRP | 0.513 |
| RRIRIRPPRLPRPRPRPFMFPRP | -0.745 |
| RRIRIRPPRLPRPRPRPHDAPRP | -0.175 |
| RRIRFRPPRLPRPRPRPGFPPRP | 0.098 |
| RRIRYRPPRLPRPRPRPGHAPRP | 3.02 |
| RRIRMRPPRLPRPRPRPVRDPRP | 0.882 |
| RRIRCRPPRLPRPRPRPERVPRP | 0.361 |
| RRIRMRPPRLPRPRPRPKCKPRP | 0.365 |
| RRIRCRPPRLPRPRPRPKPWPRP | 0.275 |
| RRIRIRPPRLPRPRPRPNYHPRP | -0.733 |
| RRIRRRPPRLPRPRPRPQIEPRP | 0.694 |
| RRIRTRPPRLPRPRPRPTNGPRP | -0.0801 |
| RRIRDRPPRLPRPRPRPVPRPRP | 0.186 |
| RRIRVRPPRLPRPRPRPNQPPRP | -0.0412 |
| RRIRERPPRLPRPRPRPYPVPRP | -0.224 |
| RRIRSRPPRLPRPRPRPGAVPRP | 0.324 |
| RRIRWRPPRLPRPRPRPDGYPRP | -0.0244 |
| RRIRKRPPRLPRPRPRPTGKPRP | 0.905 |

| Sequence | shrunken log2 fold change |
| --- | --- |
| RRIRMRPPRLPRPRPRPNMTPRP | 0.188 |
| RRIRYRPPRLPRPRPRPNIPPRP | -1.09 |
| RRIRPRPPRLPRPRPRPWFRPRP | -0.0017 |
| RRIRLRPPRLPRPRPRPMFLPRP | -0.0362 |
| RRIRMRPPRLPRPRPRPKRFPRP | 0.483 |
| RRIRGRPPRLPRPRPRPYFWPRP | 0.0833 |
| RRIRMRPPRLPRPRPRPEMVPRP | 0.0598 |
| RRIRLRPPRLPRPRPRPKFVPRP | -0.055 |
| RRIRSRPPRLPRPRPRPFMDPRP | -0.519 |
| RRIRVRPPRLPRPRPRPHKFPRP | 0.0807 |
| RRIRARPPRLPRPRPRPLWRPRP | 0.24 |
| RRIRLRPPRLPRPRPRPRMFPRP | -0.0408 |
| RRIRARPPRLPRPRPRPDWQPRP | 0.281 |
| RRIRRRPPRLPRPRPRPPALPRP | 0.635 |
| RRIRPRPPRLPRPRPRPKQAPRP | -0.0162 |
| RRIRFRPPRLPRPRPRPRLRPRP | 0.378 |
| RRIRMRPPRLPRPRPRPYDMPRP | -0.0585 |
| RRIRIRPPRLPRPRPRPETTPRP | -0.0691 |
| RRIRHRPPRLPRPRPRPETKPRP | -0.0652 |
| RRIRFRPPRLPRPRPRPCHKPRP | -0.443 |
| RRIRTRPPRLPRPRPRPAVSPRP | 0.00645 |
| RRIRHRPPRLPRPRPRPWFGPRP | -0.0191 |
| RRIRYRPPRLPRPRPRPDLMPRP | -0.107 |
| RRIRCRPPRLPRPRPRPEEDPRP | -0.00229 |
| RRIRARPPRLPRPRPRPCKIPRP | -0.165 |

| Sequence | shrunken log2 fold change |
| --- | --- |
| RRIRPRPPRLPRPRPRPIRGPRP | 0.182 |
| RRIRMRPPRLPRPRPRPAVTPRP | 0.177 |
| RRIRWRPPRLPRPRPRPWCSPRP | -0.329 |
| RRIRLRPPRLPRPRPRPISVPRP | -0.343 |
| RRIRDRPPRLPRPRPRPCPGPRP | -0.0964 |
| RRIRKRPPRLPRPRPRPKMQPRP | 0.00648 |
| RRIRARPPRLPRPRPRPRGMPRP | 0.32 |
| RRIRQRPPRLPRPRPRPTDPPRP | 0.107 |
| RRIRCRPPRLPRPRPRPAYSPRP | -0.97 |
| RRIRDRPPRLPRPRPRPWLWPRP | 0.0548 |
| RRIRPRPPRLPRPRPRPAAQPRP | 0.721 |
| RRIRSRPPRLPRPRPRPYGNPRP | -0.621 |
| RRIRQRPPRLPRPRPRPENGPRP | -0.0161 |
| RRIRVRPPRLPRPRPRPDKCPRP | -0.0495 |
| RRIRMRPPRLPRPRPRPLVHPRP | 0.035 |
| RRIRWRPPRLPRPRPRPRNVPRP | -0.0411 |
| RRIRIRPPRLPRPRPRPQHMPRP | -0.94 |
| RRIRSRPPRLPRPRPRPKPAPRP | 0.555 |
| RRIRQRPPRLPRPRPRPKGGPRP | 0.0347 |
| RRIRHRPPRLPRPRPRPAQMPRP | 0.127 |
| RRIRHRPPRLPRPRPRPNYVPRP | -0.0206 |
| RRIRARPPRLPRPRPRPHMMPRP | -0.12 |
| RRIRGRPPRLPRPRPRPTQFPRP | 0.772 |
| RRIRYRPPRLPRPRPRPDNTPRP | -0.325 |
| RRIRQRPPRLPRPRPRPSSGPRP | -0.0384 |

| Sequence | shrunken log2 fold change |
| --- | --- |
| RRIRDRPPRLPRPRPRPMWVPRP | 0.179 |
| RRIRERPPRLPRPRPRPRISPRP | -1.36 |
| RRIRWRPPRLPRPRPRPCPMPRP | -0.0512 |
| RRIRKRPPRLPRPRPRPGIEPRP | 1.34 |
| RRIRHRPPRLPRPRPRPVNYPRP | -0.881 |
| RRIRARPPRLPRPRPRPAMKPRP | 0.0417 |
| RRIRCRPPRLPRPRPRPYVTPRP | -0.893 |
| RRIRDRPPRLPRPRPRPRRSPRP | 0.174 |
| RRIRERPPRLPRPRPRPYIWPRP | 0.0553 |
| RRIRIRPPRLPRPRPRPIIMPRP | -0.34 |
| RRIRARPPRLPRPRPRPHMYPRP | -0.149 |
| RRIRPRPPRLPRPRPRPERSPRP | 0.0565 |
| RRIRERPPRLPRPRPRPFGPPRP | -0.146 |
| RRIRGRPPRLPRPRPRPHGPPRP | 0.426 |
| RRIRRRPPRLPRPRPRPLNAPRP | 0.257 |
| RRIRQRPPRLPRPRPRPDLQPRP | -0.0429 |
| RRIRGRPPRLPRPRPRPDEFPRP | 0.561 |
| RRIRDRPPRLPRPRPRPFCEPRP | 0.159 |
| RRIRMRPPRLPRPRPRPTKMPRP | 0.745 |
| RRIRKRPPRLPRPRPRPDFAPRP | -0.033 |
| RRIRLRPPRLPRPRPRPMCIPRP | -0.125 |
| RRIRWRPPRLPRPRPRPHMAPRP | 0.00551 |
| RRIRHRPPRLPRPRPRPEHNPRP | -0.0734 |
| RRIRWRPPRLPRPRPRPELEPRP | 1.35 |
| RRIRIRPPRLPRPRPRPSYPPRP | -0.56 |

| Sequence | shrunken log2 fold change |
| --- | --- |
| RRIRDRPPRLPRPRPRPNSMPRP | 0.0952 |
| RRIRLRPPRLPRPRPRPIMSPRP | -0.2 |
| RRIRSRPPRLPRPRPRPREPPRP | 0.284 |
| RRIRVRPPRLPRPRPRPCVIPRP | -0.0142 |
| RRIRHRPPRLPRPRPRPGQIPRP | -0.00195 |
| RRIRMRPPRLPRPRPRPIRAPRP | 0.3 |
| RRIRERPPRLPRPRPRPSNIPRP | -0.662 |
| RRIRSRPPRLPRPRPRPGTQPRP | 0.00256 |
| RRIRYRPPRLPRPRPRPREVPRP | 0.00495 |
| RRIRNRPPRLPRPRPRPYGAPRP | -0.397 |
| RRIRKRPPRLPRPRPRPMFVPRP | 0.426 |
| RRIRARPPRLPRPRPRPFCQPRP | -0.0229 |
| RRIRFRPPRLPRPRPRPAGAPRP | 0.515 |
| RRIRERPPRLPRPRPRPYWLPRP | -0.294 |
| RRIRCRPPRLPRPRPRPPSAPRP | 0.345 |
| RRIRPRPPRLPRPRPRPVSGPRP | 0.584 |
| RRIRNRPPRLPRPRPRPMANPRP | -9.3e-05 |
| RRIRNRPPRLPRPRPRPGRNPRP | -0.202 |
| RRIRFRPPRLPRPRPRPPEFPRP | 0.12 |
| RRIRGRPPRLPRPRPRPMMWPRP | 0.412 |
| RRIRYRPPRLPRPRPRPVLIPRP | -0.00211 |
| RRIRHRPPRLPRPRPRPMWPPRP | 0.0906 |
| RRIRSRPPRLPRPRPRPFLVPRP | -0.361 |
| RRIRYRPPRLPRPRPRPDMMPRP | -0.417 |
| RRIRPRPPRLPRPRPRPDCWPRP | 0.543 |
